This is an account of results in patent US20150307599A1 (GARVAN INSTITUTE OF MEDICAL RESEARCH, published 2015).

Where no end group is shown, it is not given here.

The target of one assay is T1, 1p31-HYINLITRQR
T1 construct: NPY residues 26-35; also called Peptide 1p31 (10 mer shifting across NPY)
T1 peptide: HYINLITRQR-NH2
Nature of the assay: indirect ELISA, peptide coated on the plate (20 µg/mL), MAb 5E12-B7 at 1 µg/mL, O.D. 450 nm. How it is done: (§1) ELISA was used to map the reactivity of purified MAb 5E12-B7 against the peptides described in Table 3. Briefly, ELISA microwell plates (96-well Maxisorp, Nunc) were coated overnight at 4° C. with 50 μL of mapping peptides (Table 3) diluted to 20 μg/mL in carbonate coating buffer (CCB). Between each of the following steps, microwell plates were washed three times with PBST using a plate washer (BioTek). Coated wells were blocked with 200 μL PBS containing 5% w/v skim milk (Diploma). Blocked wells were incubated for 1 hr with 50 μL of MAb 5E12-B7 diluted to 1 μg/mL in skim milk/PBST. Wells were then incubated for 1 hr with 50 μL Peroxidase-conjugated AffiniPure F(ab)2 fragment goat anti-mouse secondary antibody (Jackson) diluted 1:5000 in skim milk/PBST. Ig binding was detected by incubation of wells with 50 μL TMB substrate (Becton Dickinson). Substrate reaction was stopped after 15 min with 50 μL 1M H₂SO₄ and O.D. 450 nm was measured.
Background: ELISA stands for enzyme-linked immunosorbent assay.

The next assay has as its target T2, 1p26-YSALRHYINL
T2 construct: NPY residues 21-30; also called Peptide 1p26 (10 mer shifting across NPY)
T2 peptide: YSALRHYINL-NH2
Described as above. As to the method: as §1

Another assay has as its target T3, 1p25-YYSALRHYIN
T3 construct: NPY residues 20-29; also called Peptide 1p25 (10 mer shifting across NPY)
T3 peptide: YYSALRHYIN-NH2
Described as above. How it is done:
as §1

Assay [1] deals with T4, NPY (mouse NPY, Phoenix) (mouse, C-terminal amide (-NH2)).
T4 construct: 36-residue whole peptide bought from Phoenix Peptides; also called mNPY; neuropeptide Y
Nature of the assay: BLI (Octet RED96), biotinylated MAb on SA sensors, peptide in solution. As to the method:
(§2) Affinity of MAb to peptides NPY, mPYY, hPYY, mPP and hPP were measured using an OCTET RED96 system with Octet SA sensors (ForteBio). Briefly, black 96-well plates were prepared with columns containing 200 μL/well of all reagents required for determination of affinity. In general, Octet SA sensors were first placed in wells containing Octet running buffer for 60 seconds to establish a baseline. Sensors were then transferred to wells containing 50 μg/mL biotinylated 5E12-B7 for 480 seconds to load the SA coated tips. Sensors were then regenerated by 3×5 second incubations in Regeneration Buffer (10 mM Glycine, pH 2) followed each time by a 5 second incubation in Octet running buffer. Sensors were then placed in fresh running buffer for 60 seconds to establish a baseline. Association was then measured by incubation the sensors for 10 min in 8 wells containing a serial dilution of peptide (0, 0.33 to 243 nM for NPY and PYY peptides, 0, 9 to 6560 nM for PP peptides). The sensors were then transferred to wells containing Octet running buffer for 15 min to measure dissociation of the peptides. The regeneration step was repeated before measurement of association/dissociation with a different peptide. All peptide measurements were performed in duplicate. The kd, kₐ and KD were determined for each peptide using the accompanying Octet software (Bioforte).
(§3) Affinity parameters of MAb 5E12-B7 were measured against peptides NPY, mPYY, hPYY, mPP and hPP using an Octet Red system (ForteBio). Streptavadin sensors were loaded with biotinylated MAb 5E12-B7. Association and dissociation rates were measured by incubation of the sensors in wells containing serial dilutions of the peptides, followed by incubation in assay buffer.

Assay [2] addresses T5, human PYY (Phoenix) (human, C-terminal amide (-NH2)).
T5 construct: 36-residue whole peptide; also called hPYY
Described as above. How it is done:
as §2, §3

The target of assay [3] is T4, NPY (mouse NPY, Phoenix). Nature of the assay: SPR (Biacore 2000), biotinylated MAb on SA chip, peptide in solution. How it is done:
(§4) Epitope mapping and determination of the affinity of MAb 5E12-B7 was also performed using a Biacore 2000 unit (GE Healthcare). Briefly, purified MAb 5E12-B7 was biotinylated as described above, except that the biotinylation reaction was performed at a 20:1 molar ratio of biotin:Ig. An SA-Chip (GE Healthcare) was docked into the Biacore 2000 unit and HBS-EP buffer (GE) was allowed to run over all 4 flow channels at 40 μL/min until signal had stabilized. The flow path was then switched to channel 4 only and HBS-EP containing 60 μg/mL biotinylated antibody was injected at 40 μL/min for 5 min to couple MAb 5E12-B7 to the chip via biotin-streptavidin binding. HBS-EP buffer was then run over channel 4 at 40 μL/min for over 30 min to remove all uncoupled Ig from the Biacore system then the flow path was changed to pass through all 4 flow channels. Association and dissociation of the peptides in Table 3 was measured using the Biacore Application Wizard. In each case, a baseline was established by passing HBS-EP over all 4 channels at 40 μL/min for 1 min before association was measure by injection of peptide (diluted to 1, 10, 100 or 1000 nM in HBS-EP) at 40 μL/min for 5 min. Dissociation was measured by allowing HBS-EP to pass over all 4 channels at 40 μL/min for 30 min. The kd, kₐ and KD were determined for each peptide by curve fitting using the BIAevalutation software.
(§5) The affinity of MAb 5E12-B7 to NPY, PYY and PP peptides was measured using a Biacore-2000 (GE-healthcare). Biotinylated MAb was loaded onto a single channel of a streptavidin chip, and dilute samples (1 nM-1 μM) of NPY, mPYY, hPYY, mPP and hPP were then run over all four channels of the chip to obtain blank-subtracted readings for peptide on and off-rates. Using this method, significant and/or detectable binding of MAb 5E12-B7 to NPY, mPYY and hPYY was detected. In contrast, no significant and/or detectable binding to mPP and hPP could be detected.

Assay [4] has as its target T5, human PYY (Phoenix). The assay is described as above. How it is done: as §4, §5

T5 sequence (peptide, as listed by the source): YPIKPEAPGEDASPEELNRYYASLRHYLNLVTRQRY

B1: MAb 5E12-B7 (antibody, V domains shown)
VH: QVQLQHPGTEVVKPGASVKLSCKASGYTFTNYWMHWVKQRPGQGLEWIGNIDPSNGGTNYNEKFKSKATLTVDKSSSTAYMQLSSLTSEDSAVYYCASFAYWGQGTLVTVSA
VL: DIQMTQSPASLSASVGETVTITCRASGNIHNYLAWYQQKQGKSPQLLVYNAKTLADGVPSRFSGSGSGTQYSLKISSLRPEDFGSYYCQHFWSPPFTFGSGTKLEIK
notes: Biotinylated for the Biacore and Octet assays; also called PYY/NPY antibody (5E12); anti-NPY/PYY antibody 5E12
With B1, the binding result with 1p31-HYINLITRQR, in the assay with 1p26-YSALRHYINL and with 1p25-YYSALRHYIN was “no binding (tested: 1 µg/mL)” in each case. The Kd with NPY (mouse NPY, Phoenix) [1] stood at 4.7 nM; with human PYY (Phoenix) [2], 2.17 nM; with NPY (mouse NPY, Phoenix) [3], 9.79 nM; in the assay with human PYY (Phoenix) [4], 5.97 nM. The koff turned out to be 0.000429 s⁻¹ in the assay with NPY (mouse NPY, Phoenix) [1]; 0.000385 s⁻¹ in the assay with human PYY (Phoenix) [2]; 0.00142 s⁻¹ in the assay with NPY (mouse NPY, Phoenix) [3]; 0.00138 s⁻¹ in the assay with human PYY (Phoenix) [4]. For the same molecule, the kon with NPY (mouse NPY, Phoenix) [1] is 92600 M⁻¹ s⁻¹; in the assay with human PYY (Phoenix) [2], 179000 M⁻¹ s⁻¹; in the assay with NPY (mouse NPY, Phoenix) [3], 149000 M⁻¹ s⁻¹; with human PYY (Phoenix) [4] it was 251000 M⁻¹ s⁻¹.

As a reminder, the Kd is the constant that tells how readily two partners part at equilibrium. Read a low Kd as a tighter complex. As usually defined, the koff is a measure of how fast the partners let go of each other. High values mean a short-lived complex, low ones a long-lived complex. A word on the kon: it is the second-order rate constant of association.
